Measured values: patent US20250002565A1

Target: recombinant HIV gp41 (HIV)
Assay: ELISA against recombinant gp41 (in PBS)

EC50: 1.29 µg/mL
B1: recombinant class switched IgA2 antibody (antibody, V domains shown)
VH: QVQLVESGGGVVQPGRSLRLSCAASGFTFSSYAIHWVRQAPGKGLEWVAVISYDGSNRYYADSVKGRFTISRDNSKNTLYLQMNSLRPEDTAVYYCARDRFSAVASTPTYHNYFYMDVWGKGTTVTVSS
